Experiment: soluble on expression in E. coli; label from the status in PepcDB or PDB records

Row | Sequence | soluble on expression in E. coli
1 | MGSDKIHHHHHHMKAFQYAARAQRIVFGAGTIRQVGEEIDALGASSVLVLSTPEQRRLAEQVSDLLGARAIGIFDRAVMHVPVETARAACAMAFELGADSVVAIGGGSTTGLAKAIALEMSVPVLAIPTTYAGSEMTTIYGLTDAGLKRTGTDVRVLPRTVIYDPELTYLLPAAISVTSGINALAHAAEGLYAHDRNPISDLMAREGIQAMAAALPALVSERDTARLREARAQALYGAWLCGAVLGSVGVALHHKLCHTLGGSFNLPHAETHTIILPHALAYNAKAAPDAMASIAQALGADNAAQGAFDLARTTGAPLGLRQIGMREDELDKACEIALQNQYPNPRPLEAGAIRELLQNAWEGRRPV | not soluble
2 | HKRPVPAKRYDNVTILFSGIVGFNAFCSKHASGEGAMKIVNLLNDLYTRFDTLTDSRKNPFVYKVETVGDKYMTVSGLPEPCIHHARSICHLALDMMEIAGQVQVDGESVQITIGIHTGEVVTGVIGQRMPRYCLFGNTVNLTSRTETTGEKGKINVSEYTYRCLMSPENSDPQFHLEHRGPVSMKGKKEPMQVWFLSRKNTGTEETKQDDDAENLYFQ | soluble
3 | MSLNNRSETMKYKRIVFKVGTSSLTNEDGSLSRSKVKDITQQLAMLHEAGHELILVSSGAIAAGFGALGFKKRPTKIADKQASAAVGQGLLLEEYTTNLLLRQIVSAQILLTQDDFVDKRRYKNAHQALSVLLNRGAIPIINENDSVVIDELKVGDNDTLSAQVAAMVQADLLVFLTDVDGLYTGNPNSDPRAKRLERIETINREIIDMAGGAGSSNGTGGMLTKIKAATIATESGVPVYICSSLKSDSMIEAAEETEDGSYFVAQEKGLRTQKQWLAFYAQSQGSIWVDKGAAEALSQHGKSLLLSGIVEAEGVFSYGDIVTVFDKESGKSLGKGRVQFGASALEDILRSQKAKGVLIYRDDWISITPEIQLLFTEFEGHHHHHH | soluble
4 | MAQTERRDAPELPDFSLLKRLARDQLIFLLEQLPGKKDLFIDADLMSPLDRIANVTILKQHEVDKLYKVELKPIVSSSDQLCFLIRPRIQTVKWISDLVNSDKVAGRFRRYKIIFTPQKFYACETVLEEQGVYGDVTTDEWNFYILPLDDDILSLELPEFFRDNFLEGDQRWVTTGGGALHLLQSVYGSFSKVYGIGRCAKMVYESWRELMEEGEQRTRQPEFAKVFLIDRDVDFVTPLCSQVVYEGLVDDIFRIKCSSVEFGPDVTSSDKSIKVMLNSQDKVFNEIRNEHFSNVFGFLSQKAKNLQTAYDKRRGMDIQQMKAFVADELKGLKQEHRLLSLHIGASESIMKKKTKQDFQELLKTEHSLLEGFEIRECIAYIEEHINRQVSMIDSLRLLCLLSITENGLLSKDYRSLKAQYLQSYGIEHLLTFANLRQLGLLEEQQTGETLTVMESKVGKLVNDKTAGKLTDAFSSLAKKSNFRALSKRLALVPKSGEEYDLRVPRDMAYIFSGAYIPLSCKLIEQVLERDGWTGLEEVTRMLNGQDFAVTGGSSSSEARNKSNGQRIILVMFLGGCTYSEISALRFLGKERGCRFIVLTTAITNSGRLLEALLDKHV | soluble
5 | MADKKAPAAGWPVANGEYVVGNPESCVAVITLGSHGLDQAAIDAGAAISGPCHTENLGIEKVVANYISNPNIRFMVIAGSEVQGHITGQCIKALYENGIGDDGGIIGAKGAIPFMENVGKEPVGRLQTQVVECIDLIDVEDKGKIADAIKNCISKDPGAFEEDPMVIELEGGAAAAGDEEGGLMIEGIPTVAEPDIESIKSLNEALDYKVGLMTRDLGLASGVQTETVTG | not soluble
6 | GPGSMIGAPWPPEAVFGNTVDRVASPAPVPERKISIADQLHLPLSRFVEKMSWGEKRRVQILHGMLYPATVYLLDECSTDIDVAERRTVLELVRQECEAKDGCCVYATHIFDGIEGWATHLLLMEGGRVVDFKAVEKLTLPLEDYALQFMSKRAHAARGVDGVAAASLSHGSSAAISTTSPACPTTAAAACPTSATTDAPVTYWPRGHADEKRSEIVINCAQLNYKDVFKNLSFQVFRGERVLLCGGNGTGKSTLLNMLGGKQFFDNRQGSLSVLGKRCYDDMLLNALVSYGGDWWTAVPGGEVHVREMLQLRTSRAERLCEMLAVDMDWDVRHISAGEQKRVQLLLHLLDDKPVVLLDEATTDLDVYQRHSLLQFLYEESVQRGVTVVYSTHIFGGVEGWANVVVLLDRTVRGVHAVWRASEGQPIVLQRVVDAIVSLKAREVF | not soluble
7 | STEDSVKAVKRAADDDPHTETEHEDKKLKTDQEERKYPKKKVALLMAYSGKGYYGMQRNARNSQFKTIEDELVTALVGARCIPEGHAEEMKKMSFQRSARTDKGVSAVGRVVSLKVWMIENILEKINAHLPPRIRVLGCKRVTGGFNSKNNCYARTYSYMLPTVAFSPKDYNQEDTSFRLTSDTLQTVNRLFCLYKGTHNFHNFTSQKGHRDPSAMRYITHMSCGEPFIRKDVEFAVITVRGQSFMMHQIRKMIGLVIAVVKGYVDEGVMEKSWGEEKVGVSKAPGLGLVLERVHFDGYNKRFGGDGIHETLEWTEQEEAIADFKEKHIYPTIVDTELNERSMVNWMTSLCIHDFEETATGNQDRKDDDEDGSASD | soluble
8 | MKLKVTVNGAGKAGEGEIPAPLAGTVSKILVKEGDTVKAGQTVLVLEAMKMETEINAPTDGKVEKVLVKERDAVQGGQGLIKIG | soluble
9 | MGSDKIHHHHHHMIMEELAKKIEEEILNHVREPQIPDREVNLLDFGARGDGRTDCSESFKRAIEELSKQGGGRLIVPEGVFLTGPIHLKSNIELHVKGTIKFIPDPERYLPVVLTRFEGIELYNYSPLVYALDCENVAITGSGVLDGSADNEHWWPWKGKKDFGWKEGLPNQQEDVKKLKEMAERGTPVEERVFGKGHYLRPSFVQFYRCRNVLVEGVKIINSPMWCVHPVLSENVIIRNIEISSTGPNNDGIDPESCKYMLIEKCRFDTGDDSVVIKSGRDADGRRIGVPSEYILVRDNLVISQASHGGLVIGSEMSGGVRNVVARNNVYMNVERALRLKTNSRRGGYMENIFFIDNVAVNVSEEVIRINLRYDNEEGEYLPVVRSVFVKNLKATGGKYAVRIEGLENDYVKDILISDTIIEGAKISVLLEFGQLGMENVIMNGSRFEKLYIEGKALLK | not soluble
10 | GPGSMLSRIKRQQEEAQAATRSGGESAINQPGQKESMAVLRLKNDLDNLDGICSKVVIPDPDNMLRMKVTVRPSRPSIWHGGFFDFLLEFREEYPYEGPRVRYVGPNRVWHPNIEGSEFAEKEGMEKASRKTEWSVCLSFQTDWKPTFSLRDVIIMIELLFQDPNPDDPLHGTSKQAAQMMKDDPVRFRTKARYWMSGHYID | soluble
11 | GMSNINYVILTVASVDFSYRETMARLMSSYSKDLIDNAGAKGTRFGSIGTGDHAGSLIFIQFYDDLTGYQKALEIQSKSSVFKEIMDSGKANIYLRNISTSLPTKFEQSYEHPKYIVLTRAEAAMSDKDKFLNCINDTASCFKDNGALTLRFGNLLTGSNVGNYLLGVGYPSMEAIEKTYDELLAHSSYKELMTFAKVNMRNIIKIL | soluble
12 | MGSDKIHHHHHHLGIYVNPTGRSFELAINSEIFVDKSGLIKETNKCINTLQRYMCVSRPRRFGKSMAMDMLSAYYGRKTDAENLFKGLKISHDESYDRHINKYDVLKINMQDFLSVTHSVDDMLKMLCEYITDDFSIECKDIIFRDKSNIVRVMQDVFMSTGRPFVILIDEWDCLFREFTQDKEAQKKYLDFLRGWLKDKDYIALAYMTGILPIKKYGSHSALNMFTEYSMTDMGALAEYFGFTDDEVRELCDRYDMDFEEARAWYNGYKLVSHSKYGVKKYAMYSPKSVVEAMLKHKFGTYWNQTETYEALKVYIQMNMDGLKDAVIKMLAGESEKINTGTFENDMTSFATKDDVLTLLVHLGYLTYDSETEEVSIPNREVSKEYLNAISTMDWDEVSKSIKASQKLLESLWNMNGAAVADGIDKAHNEISILRYNDENSLSCTINLAFYSAREYYSIVRELPTGKGFADVCFIPRVSHLDKPAVVIELKYDKNVDGAISQIKSRQYVEALKDYKGNLLLVGINYDKKTKEHQCVIEKWKL | not soluble
13 | PPHVKYIKEKEICDYEPSSDAGHFRWYPKGKLIRDLLSDYVYNLVVENGGMPVETPVMYDLQNNAIREHADKFGERQYRFKQGNKDLMLRFAACFGQFMMKKDMYLLPKHMPLKLYELSTYSFRYEQRGELVGLKRLRAFTMPDMHTVCIDMKQAMEAFEDQLWMGLKTGDDFKTPYAIIFRFTEDFFEENKEWFFGMAKEYKQKYGKDAILEILPGRKHYWVGKVDMAVVDSFGRPIENPTVQIDVESAERFGIVVHDGDKKVQPIILHCSPTGSVERVLCGLLEN | not soluble
14 | SPFDTGPELESQIRNQYGVDVHVVPVLDTLNEAETLDRVAMQAARTIGPLVDSNAIIGVAWGATLSAVSRHLTRKMTHDSIVVQLNGAGNMQTTGITYASDIMRRFGSAYGARVEQFPVPAFFDHASTKTAMWNERSVQRILDLQARMSIAIFGVGSVDSDYPSHVYAGGYLDEHDLTMLAADDVVGDVATVFFRSDGSSDGITLNERSTGPSHEQLRQVRRRICVVSGASKINGLQGALAAGLATDLILDEASARRLVSFNGHS | soluble
15 | MGSDKIHHHHHHMSMVQSAFPPRRNSVGVQVGSIRIGGGAPIVVQSMTNTDTEDEIATTVQVAQLARAGSELVRITVNTAEAARAVPGIRARLDDMGCQVPLIGDFHFNGHKLVTEYPGCARALAKYRINPGNVGHGKKRDEQFSILIEAACKYEKPVRIGVNWGSLDPELLARMMDENARSGDPRDASAVMYEALITSALQSAERAEEIGLGRDRIILSCKMSGVRDLITVYRALAARCDYALHLGLTEAGMGSKGIVASTAALSVLLLEGIGDTIRISLTPEPGGDRAREVVVAQEILQTTGLRAFVPLVAACPGCGRTTSTYFQELAESIQGYVREQMLVWREEYEGVENMTLAVMGCVVNGPGESKHANIGISLPGSGERPVAPVFVDGQKAVTLKGDNIAGEFRQIVDEYVQMKYPKKAVDAH | not soluble
16 | LTEHLIDSIRTNRTENKIHLKPEPFNIGPYTKLSINKRDNYGTIKIKWFDRVPFTEYKSFLDSSIHNLNTRQITNLIIDLRWNIGGPREYPIYLLSKILNQPFRYCDSLITTKFTFEEKIAFDSTKVFVPMDNGFYKVVKNARGLGQQNPSNVTFTGNIYLLVDGQSNSSSAQVASLIYQNRRGTIIGEEPGGLFEGGTGEHHYYLTLTNSRIKVQIPRYRIVLHVDRSKFHGHGVKPDYEVKPDITDMIQGKDPVMEFTIGLIKK | not soluble
17 | MIVTTTSGIQGKEIIEYIDIVNGEAIMGANIVRDLFASVRDVVGGRAGSYESKLKEARDIAMDEMKELAKQKGANAIVGVDVDYEVVRDGMLMVAVSGTAVRI | soluble
18 | EDGYDMWLRYQPIADQTLLKTYQKQIRHLHVAGDSPTINAAAAELQRGLSGLLNKPIVARDEKLKDYSLVIGTPDNSPLIASLNLGERLQALGAEGYLLEQTRINKRHVVIVAANSDVGVLYGSFHLLRLIQTQHALEKLSLSSAPRLQHRVVNHWDNLNRVVERGYAGLSLWDWGSLPNYLAPRYTDYARINASLGINGTVINNVNADPRVLSDQFLQKIAALADAFRPYGIKMYLSINFNSPRAFGDVDTADPLDPRVQQWWKTRAQKIYSYIPDFGGFLVKADSEGQPGPQGYGRDHAEGANMLAAALKPFGGVVFWRAFVYHPDIEDRFRGAYDEFMPLDGKFADNVILQIKNGPIDFQPREPFSALFAGMSRTNMMMEFQITQEYFGFATHLAYQGPLFEESLKTETHARGEGSTIGNILEGKVFKTRHTGMAGVINPGTDRNWTGHPFVQSSWYAFGRMAWDHQISAATAADEWLRMTFSNQPAFIEPVKQMMLVSREAGVNYRSPLGLTHLYSQGDHYGPAPWTDDLPRADWTAVYYHRASKTGIGFNRTKTGSNALAQYPEPIAKAWGDLNSVPEDLILWFHHLSWDHRMQSGRNLWQELVHKYYQGVEQVRAMQRTWDQQEAYVDAARFAQVKALLQVQEREAVRWRNSCVLYFQSVAGRPIPANYEQPEHDLEYYKMLARTTYVPEPWHPASSSRVLK | soluble

Source: the DeepSol protein solubility set
